Experimental data: the supplement of paper PMC10065799, “High-throughput profiling of sequence recognition by tyrosine kinases and SH2 domains using bacterial peptide display” (eLife, 2023)

Experiments:
[1] = biological target: Grb2 SH2 (UniProt P62993); assay: SH2 binding enrichment of the phosphorylated peptide, bacterial display (enrichment ratio); higher = better substrate or ligand; peptides without Tyr show the background
[2] = biological target: SHP2-C SH2; assay: as above
[3] = biological target: c-Src SH2; assay: as above
[4] = biological target: FGFR3 (UniProt P22607); assay: phosphorylation enrichment, bacterial display (enrichment ratio); higher = better substrate or ligand; peptides without Tyr show the background
[5] = biological target: EPHB1 (UniProt P54762); assay: as above
[6] = test system: Fer (mouse); assay: as above
[7] = test system: c-Abl (mouse); assay: as above
[8] = biological target: MERTK (UniProt Q12866); assay: as above
[9] = test system: AncSZ; assay: as above
[10] = biological target: Jak2 (UniProt O60674); assay: as above
[11] = biological target: Fyn (UniProt P06241); assay: as above
[12] = biological target: Fes (UniProt P07332); assay: as above
[13] = test system: c-Src; assay: as above
[14] = biological target: Hck (UniProt P08631); assay: as above
[15] = biological target: EPHB2 (UniProt P29323); assay: as above
[16] = biological target: FGFR1 (UniProt P11362); assay: as above
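For SH2 binding enrichment of the phosphorylated peptide, bacterial display in this document: peptide library displayed on the E. coli surface as eCPX fusions, selected cells deep-sequenced, score is each peptide's frequency after selection divided by its frequency in the input.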
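For phosphorylation enrichment, bacterial display in this document: 11-residue human phosphosite peptides and single-mutation variants displayed on the E. coli surface, counted by deep sequencing, each peptide's frequency after selection divided by its frequency in the unselected input library; frequency after pTyr selection over input frequency; kinase dosed for 20-30% of maximal phosphorylation in three min.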

Sequence of Grb2 SH2 (P62993 whole entry, looked up): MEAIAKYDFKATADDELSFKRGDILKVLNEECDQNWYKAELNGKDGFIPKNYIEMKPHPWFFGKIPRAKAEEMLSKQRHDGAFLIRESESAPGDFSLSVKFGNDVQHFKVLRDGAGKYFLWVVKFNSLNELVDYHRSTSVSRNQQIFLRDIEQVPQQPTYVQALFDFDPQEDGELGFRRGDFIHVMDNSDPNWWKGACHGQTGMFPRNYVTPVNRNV
Sequence of MERTK (Q12866 whole entry, looked up): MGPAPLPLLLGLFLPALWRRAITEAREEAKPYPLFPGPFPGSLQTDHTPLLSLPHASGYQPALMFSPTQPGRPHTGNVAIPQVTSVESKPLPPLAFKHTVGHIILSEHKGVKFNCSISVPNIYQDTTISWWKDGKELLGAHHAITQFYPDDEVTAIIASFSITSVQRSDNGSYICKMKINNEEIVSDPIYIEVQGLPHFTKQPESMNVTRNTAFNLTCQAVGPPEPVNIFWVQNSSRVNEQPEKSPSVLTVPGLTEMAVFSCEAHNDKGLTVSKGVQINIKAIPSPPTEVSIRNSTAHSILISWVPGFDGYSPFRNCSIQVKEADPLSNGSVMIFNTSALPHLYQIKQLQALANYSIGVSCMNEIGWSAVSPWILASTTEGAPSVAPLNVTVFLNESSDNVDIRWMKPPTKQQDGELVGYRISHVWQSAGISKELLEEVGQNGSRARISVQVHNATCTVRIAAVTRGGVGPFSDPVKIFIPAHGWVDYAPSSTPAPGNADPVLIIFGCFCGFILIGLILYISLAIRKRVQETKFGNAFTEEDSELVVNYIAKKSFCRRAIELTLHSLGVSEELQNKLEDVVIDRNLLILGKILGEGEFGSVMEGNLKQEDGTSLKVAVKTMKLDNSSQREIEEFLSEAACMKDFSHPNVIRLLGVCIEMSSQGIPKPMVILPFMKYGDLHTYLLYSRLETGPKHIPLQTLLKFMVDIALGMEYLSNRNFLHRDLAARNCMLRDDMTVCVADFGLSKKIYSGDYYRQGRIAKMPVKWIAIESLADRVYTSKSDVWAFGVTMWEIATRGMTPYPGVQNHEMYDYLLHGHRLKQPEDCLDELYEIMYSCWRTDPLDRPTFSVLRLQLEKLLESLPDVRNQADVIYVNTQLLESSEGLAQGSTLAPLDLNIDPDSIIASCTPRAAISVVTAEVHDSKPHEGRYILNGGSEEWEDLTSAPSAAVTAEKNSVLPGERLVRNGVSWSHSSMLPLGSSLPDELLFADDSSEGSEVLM
Sequence of FGFR3 (P22607 whole entry, looked up): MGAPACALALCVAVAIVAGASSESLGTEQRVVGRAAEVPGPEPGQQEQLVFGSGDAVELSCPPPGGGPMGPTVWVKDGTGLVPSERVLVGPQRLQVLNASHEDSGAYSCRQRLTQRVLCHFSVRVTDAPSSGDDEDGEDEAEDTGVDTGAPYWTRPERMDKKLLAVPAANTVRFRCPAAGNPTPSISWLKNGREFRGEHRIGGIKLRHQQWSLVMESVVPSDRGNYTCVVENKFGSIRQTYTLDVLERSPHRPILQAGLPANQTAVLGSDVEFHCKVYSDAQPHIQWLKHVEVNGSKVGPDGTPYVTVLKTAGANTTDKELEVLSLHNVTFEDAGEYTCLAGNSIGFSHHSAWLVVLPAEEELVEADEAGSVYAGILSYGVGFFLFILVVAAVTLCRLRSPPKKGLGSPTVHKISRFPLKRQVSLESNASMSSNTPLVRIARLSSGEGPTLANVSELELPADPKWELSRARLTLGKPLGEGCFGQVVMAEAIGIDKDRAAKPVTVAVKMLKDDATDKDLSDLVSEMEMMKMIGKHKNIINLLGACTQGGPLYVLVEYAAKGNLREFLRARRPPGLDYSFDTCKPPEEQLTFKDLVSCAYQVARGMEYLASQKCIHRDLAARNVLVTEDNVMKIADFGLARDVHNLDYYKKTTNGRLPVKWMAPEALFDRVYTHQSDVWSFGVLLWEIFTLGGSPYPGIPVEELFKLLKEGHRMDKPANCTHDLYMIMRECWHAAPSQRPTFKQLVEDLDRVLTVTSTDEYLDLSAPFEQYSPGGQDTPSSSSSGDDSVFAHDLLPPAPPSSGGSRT
Sequence of Fyn (P06241 whole entry, looked up): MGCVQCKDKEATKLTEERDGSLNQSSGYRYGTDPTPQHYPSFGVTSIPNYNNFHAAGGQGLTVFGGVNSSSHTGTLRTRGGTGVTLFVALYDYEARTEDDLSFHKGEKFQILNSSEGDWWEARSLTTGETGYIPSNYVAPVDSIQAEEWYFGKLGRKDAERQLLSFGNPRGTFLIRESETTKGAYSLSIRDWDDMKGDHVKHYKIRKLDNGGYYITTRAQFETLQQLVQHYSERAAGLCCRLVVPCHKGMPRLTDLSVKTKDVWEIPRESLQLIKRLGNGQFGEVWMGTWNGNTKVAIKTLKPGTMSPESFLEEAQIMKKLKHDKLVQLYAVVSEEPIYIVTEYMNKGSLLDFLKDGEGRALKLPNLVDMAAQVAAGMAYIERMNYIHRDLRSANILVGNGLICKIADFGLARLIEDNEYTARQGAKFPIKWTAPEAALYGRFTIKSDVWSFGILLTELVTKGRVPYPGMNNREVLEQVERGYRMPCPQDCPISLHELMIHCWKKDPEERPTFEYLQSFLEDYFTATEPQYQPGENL
Sequence of Jak2 (O60674 whole entry, looked up): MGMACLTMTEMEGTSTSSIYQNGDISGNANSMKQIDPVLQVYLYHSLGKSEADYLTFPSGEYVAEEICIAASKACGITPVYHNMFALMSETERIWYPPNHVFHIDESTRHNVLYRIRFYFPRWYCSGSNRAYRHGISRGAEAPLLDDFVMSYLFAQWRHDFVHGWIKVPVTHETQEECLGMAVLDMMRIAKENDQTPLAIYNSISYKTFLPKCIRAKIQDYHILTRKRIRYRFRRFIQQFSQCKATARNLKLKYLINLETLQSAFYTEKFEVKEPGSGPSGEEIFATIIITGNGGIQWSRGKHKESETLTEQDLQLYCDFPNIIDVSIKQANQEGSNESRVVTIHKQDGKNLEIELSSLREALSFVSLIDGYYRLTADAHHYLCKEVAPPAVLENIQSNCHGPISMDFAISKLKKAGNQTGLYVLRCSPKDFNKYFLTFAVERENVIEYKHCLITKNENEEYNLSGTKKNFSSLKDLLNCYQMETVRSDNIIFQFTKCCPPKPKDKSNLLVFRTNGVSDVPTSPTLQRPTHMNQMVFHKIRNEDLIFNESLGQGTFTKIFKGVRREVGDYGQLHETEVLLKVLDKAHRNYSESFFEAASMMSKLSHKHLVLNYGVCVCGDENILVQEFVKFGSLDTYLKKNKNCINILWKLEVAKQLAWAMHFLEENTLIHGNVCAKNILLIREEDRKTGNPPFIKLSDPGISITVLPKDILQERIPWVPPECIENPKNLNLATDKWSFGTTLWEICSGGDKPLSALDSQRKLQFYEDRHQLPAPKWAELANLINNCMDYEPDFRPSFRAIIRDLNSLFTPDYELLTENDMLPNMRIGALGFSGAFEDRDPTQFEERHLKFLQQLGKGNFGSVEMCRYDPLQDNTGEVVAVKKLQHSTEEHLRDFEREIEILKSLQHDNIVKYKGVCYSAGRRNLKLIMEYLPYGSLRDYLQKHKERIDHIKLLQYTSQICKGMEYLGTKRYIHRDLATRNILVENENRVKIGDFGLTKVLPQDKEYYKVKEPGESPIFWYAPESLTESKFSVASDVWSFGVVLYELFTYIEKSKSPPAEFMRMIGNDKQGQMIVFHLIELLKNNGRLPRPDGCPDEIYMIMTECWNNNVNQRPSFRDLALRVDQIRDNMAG
Sequence of FGFR1 (P11362 whole entry, looked up, the tested form may be a part): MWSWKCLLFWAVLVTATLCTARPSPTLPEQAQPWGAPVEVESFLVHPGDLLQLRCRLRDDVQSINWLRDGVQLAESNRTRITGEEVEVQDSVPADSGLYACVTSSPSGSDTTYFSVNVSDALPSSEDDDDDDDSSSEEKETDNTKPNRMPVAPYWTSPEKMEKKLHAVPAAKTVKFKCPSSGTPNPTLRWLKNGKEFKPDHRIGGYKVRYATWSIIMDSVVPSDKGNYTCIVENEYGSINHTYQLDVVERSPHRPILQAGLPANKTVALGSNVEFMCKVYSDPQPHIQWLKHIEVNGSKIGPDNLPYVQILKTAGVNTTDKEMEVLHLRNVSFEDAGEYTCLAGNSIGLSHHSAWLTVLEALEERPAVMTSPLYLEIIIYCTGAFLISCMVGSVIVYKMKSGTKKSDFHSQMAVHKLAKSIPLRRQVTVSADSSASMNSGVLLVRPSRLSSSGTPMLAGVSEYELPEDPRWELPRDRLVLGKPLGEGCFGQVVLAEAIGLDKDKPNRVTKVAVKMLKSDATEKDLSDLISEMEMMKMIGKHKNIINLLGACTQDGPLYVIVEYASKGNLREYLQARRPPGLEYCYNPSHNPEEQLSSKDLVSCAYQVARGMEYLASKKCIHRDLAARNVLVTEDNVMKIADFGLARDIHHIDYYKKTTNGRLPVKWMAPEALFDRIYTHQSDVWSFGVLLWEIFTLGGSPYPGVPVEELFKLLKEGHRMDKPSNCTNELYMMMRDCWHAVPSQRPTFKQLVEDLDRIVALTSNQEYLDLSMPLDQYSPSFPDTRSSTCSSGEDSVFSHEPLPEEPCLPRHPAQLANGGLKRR
Sequence of Hck (P08631 whole entry, looked up): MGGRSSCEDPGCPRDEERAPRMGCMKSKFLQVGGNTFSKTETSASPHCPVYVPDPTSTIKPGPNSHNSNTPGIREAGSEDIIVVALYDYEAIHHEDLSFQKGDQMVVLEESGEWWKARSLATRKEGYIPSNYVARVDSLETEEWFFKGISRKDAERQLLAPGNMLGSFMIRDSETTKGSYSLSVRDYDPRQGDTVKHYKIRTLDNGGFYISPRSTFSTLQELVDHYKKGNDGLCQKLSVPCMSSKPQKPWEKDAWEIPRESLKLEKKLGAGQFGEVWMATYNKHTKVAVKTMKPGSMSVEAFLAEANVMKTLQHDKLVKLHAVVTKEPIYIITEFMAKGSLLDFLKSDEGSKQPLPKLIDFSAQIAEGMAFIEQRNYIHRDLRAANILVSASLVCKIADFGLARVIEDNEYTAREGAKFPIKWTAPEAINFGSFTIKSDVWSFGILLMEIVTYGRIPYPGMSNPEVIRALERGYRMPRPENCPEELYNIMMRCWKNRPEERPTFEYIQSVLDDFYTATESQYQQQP

| Sequence | SH2 binding enrichment [1] | SH2 binding enrichment [2] | SH2 binding enrichment [3] | phosphorylation enrichment [4] | phosphorylation enrichment [5] | phosphorylation enrichment [6] | phosphorylation enrichment [7] | phosphorylation enrichment [8] | phosphorylation enrichment [9] | phosphorylation enrichment [10] | phosphorylation enrichment [11] | phosphorylation enrichment [12] | phosphorylation enrichment [13] | phosphorylation enrichment [14] | phosphorylation enrichment [15] | phosphorylation enrichment [16] |
| --- | --- | --- | --- | --- | --- | --- | --- | --- | --- | --- | --- | --- | --- | --- | --- | --- |
| PVRIAYDRPRG [SUGP2_Y985] | 0.641 | 0.764 | 0.623 | 0.653 | 0.464 | 0.746 | 0.671 | 0.591 | 0.923 | 1.44 | 0.486 | 0.737 | 0.609 | 0.426 | 0.691 | 0.384 |
| GCVSKYSGVFS [TUBGCP6_Y1624] | 0.83 | 0.906 | 0.596 | 0.51 | 0.433 | 0.403 | 0.619 | 0.514 | 0.815 | 0.81 | 0.357 | 0.964 | 0.463 | 0.411 | 0.458 | 0.321 |
| GMTRNYIIFIE [BCO2_Y294] | 1.34 | 1.32 | 1.18 | 0.745 | 0.649 | 0.447 | 0.49 | 0.487 | 0.96 | 0.885 | 0.567 | 0.921 | 0.498 | 0.563 | 0.67 | 0.599 |
| ADLLDYIKALN [HPRT1_Y81] | 0.786 | 0.607 | 0.468 | 0.695 | 0.625 | 0.531 | 0.754 | 0.48 | 1.07 | 0.928 | 0.445 | 1.2 | 0.484 | 0.52 | 0.558 | 0.434 |
| DRFDNYIEKVR [DES_Y122_A120D] | 0.836 | 0.596 | 0.507 | 0.604 | 0.348 | 0.408 | 0.583 | 0.406 | 0.709 | 0.755 | 0.432 | 0.774 | 0.421 | 0.413 | 0.433 | 0.539 |
| TVVGLYQKSSL [MYH7_Y609] | 0.872 | 0.67 | 0.619 | 0.75 | 0.567 | 0.675 | 0.793 | 0.627 | 0.973 | 0.849 | 0.55 | 0.988 | 0.483 | 0.685 | 0.638 | 0.483 |
| EPDSLYGCGGG [ATM_Y2019] | 0.977 | 0.854 | 0.619 | 0.674 | 0.663 | 1.06 | 1.04 | 0.6 | 1.01 | 1.11 | 2.06 | 1.26 | 2.33 | 2.94 | 0.766 | 0.619 |
| KMATAYIRRMS [BCO1_Y264] | 0.593 | 0.497 | 0.389 | 0.431 | 0.359 | 0.362 | 0.544 | 0.468 | 0.68 | 0.58 | 0.425 | 0.572 | 0.514 | 0.425 | 0.495 | 0.461 |
| LIEQAYDNLHE [PRPF8_Y871_P874L] | 0.736 | 0.626 | 5.09 | 1.05 | 0.623 | 0.821 | 0.479 | 0.426 | 1.44 | 0.593 | 0.714 | 1.38 | 0.325 | 1.15 | 0.877 | 0.6 |
| SESSYYKSLNL [NGEF_Y289_A286S] | 0.767 | 0.623 | 0.678 | 0.841 | 0.503 | 0.624 | 0.561 | 0.913 | 0.876 | 0.852 | 0.657 | 0.756 | 0.586 | 0.627 | 0.57 | 1.01 |
| GCKNHYDKDKP [THAP1_Y14_R13H] | 1.11 | 0.928 | 0.845 | 0.562 | 0.396 | 0.521 | 0.736 | 0.504 | 0.583 | 0.616 | 0.423 | 1.02 | 0.445 | 0.411 | 0.521 | 0.555 |
| QQLQGYVPSNY [FRK_Y99_I100V] | 0.775 | 0.604 | 0.562 | 0.733 | 0.552 | 0.45 | 0.64 | 0.396 | 0.554 | 0.822 | 0.486 | 0.874 | 0.413 | 0.537 | 0.36 | 0.458 |
| PTTKTYFPQFD [HBA1_Y43_H46Q] | 0.772 | 1.11 | 0.59 | 0.636 | 0.672 | 0.499 | 0.597 | 0.428 | 0.83 | 0.737 | 0.617 | 0.922 | 0.74 | 0.611 | 0.58 | 0.576 |
| VEGISYDFIPT [CBS_Y308_G307S] | 0.654 | 0.633 | 2.11 | 0.941 | 0.578 | 0.96 | 0.754 | 2.96 | 1.28 | 0.984 | 0.529 | 0.982 | 0.596 | 1.9 | 0.568 | 0.564 |
| IVAREYFSDAD [CAMK2A_Y106_E109D_YF] | 0.8 | 0.589 | 0.467 | 0.583 | 0.48 | 0.418 | 0.8 | 0.378 | 0.744 | 0.793 | 0.378 | 0.922 | 0.438 | 0.415 | 0.491 | 0.461 |
| WEPFGYAVTRC [PTPRT_Y412] | 0.683 | 0.589 | 0.685 | 0.707 | 0.591 | 0.458 | 0.673 | 0.345 | 0.947 | 0.915 | 0.402 | 0.999 | 0.382 | 0.479 | 0.567 | 0.547 |
